Residue numbers refer to the chain shown, from its start.
Experiments:
Assay in all cases: AlphaScreen or HTRF; saturation binding: HEK293 cells transfected with SNAP-tagged receptor (WT or mutant) and labelled with SNAP-Lumi4-Tb, incubated with increasing concentrations of galanin-A2 in the presence or absence of 100 uM unlabeled galanin, 1 h at room temperature; HTRF ratio 665 nm/620 nm
Details in all cases: one partner purified
SNAP-GAL2R L169^ECL2A = target: T1, SNAP-GAL2R L169^ECL2A (human, UniProt O43603 1-387, L169^ECL2A, Lumi4-Tb on the SNAP tag)
T1 construct: also called L169A; source: HEK293, transfected, on cells; not shown: SNAP tag, N-terminal, kept
T1 sequence (looked up): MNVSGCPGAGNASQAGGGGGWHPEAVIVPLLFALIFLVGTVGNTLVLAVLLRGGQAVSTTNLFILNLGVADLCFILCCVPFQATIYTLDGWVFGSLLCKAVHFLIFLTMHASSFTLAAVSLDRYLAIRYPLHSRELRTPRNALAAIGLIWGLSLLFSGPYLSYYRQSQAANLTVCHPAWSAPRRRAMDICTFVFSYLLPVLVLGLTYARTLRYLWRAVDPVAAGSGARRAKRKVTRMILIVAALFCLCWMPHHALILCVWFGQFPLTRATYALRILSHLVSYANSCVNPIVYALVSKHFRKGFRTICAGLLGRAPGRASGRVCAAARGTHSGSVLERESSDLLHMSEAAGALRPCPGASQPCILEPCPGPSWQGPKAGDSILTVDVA

SNAP-GAL2R L172^ECL2A = target: T2, SNAP-GAL2R L172^ECL2A (human, UniProt O43603 1-387, L172^ECL2A, Lumi4-Tb on the SNAP tag)
T2 construct: also called L172A; source: HEK293, transfected, on cells; not shown: SNAP tag, N-terminal, kept
T2 sequence (looked up): T1 sequence (looked up) with A169L, L172A

SNAP-GAL2R R184^5.35A = target: T3, SNAP-GAL2R R184^5.35A (human, UniProt O43603 1-387, R184^5.35A, Lumi4-Tb on the SNAP tag)
T3 construct: also called R184A; source: HEK293, transfected, on cells; not shown: SNAP tag, N-terminal, kept
T3 sequence (looked up): T1 sequence (looked up) with A169L, R184A

SNAP-GAL2R R274^7.35A = target: T4, SNAP-GAL2R R274^7.35A (human, UniProt O43603 1-387, R274^7.35A, Lumi4-Tb on the SNAP tag)
T4 construct: also called R274A; source: HEK293, transfected, on cells; not shown: SNAP tag, N-terminal, kept
T4 sequence (looked up): T1 sequence (looked up) with A169L, R274A

B1: galanin-A2 (full-length galanin labeled with the dye A2 on an additional cysteine at the C-terminal end) (peptide)
peptide: GWTLNSAGYLLGPHAVGNHRSFSDKNGLTSC
modifications: dye A2 on the additional C-terminal cysteine
notes: numbers count on: the mature protein; additional cysteine at the C-terminal end of the peptide, carries the dye A2; source: synthetic peptide (synthesized by Vazyme, China)
B1 was tested, and the Kd (SNAP-GAL2R L169^ECL2A) was 86.2 nM, the Kd (SNAP-GAL2R L172^ECL2A) was 51.6 nM and the Kd (SNAP-GAL2R R184^5.35A) was 286 nM. It also gave a Kd (SNAP-GAL2R R274^7.35A) of 553 nM.
